The target in the assay is T1, S. venezuelae WhiD (SvWhiD), N-terminally His6-tagged, full length (S. venezuelae, [4Fe-4S] cluster bound as isolated (cluster loading ~90%); cluster-free (apo) form after exposure to O2; N-terminal methionine cleaved).
T1 construct: WhiD of Streptomyces venezuelae, Wbl family [4Fe-4S] protein; codon-optimized gene in pET28a (NdeI/HindIII); His-tagged protein 15,923 Da by LC-MS (predicted 15,924 Da without the N-terminal methionine); The holo ([4Fe-4S]) and apo (cluster-free) forms have the same polypeptide and are kept as one molecule; The assay and the 'only:' limit tell which form was tested; The preparation holds ~10% …
The assay is described as follows: native MS; nondenaturing ESI-MS titration; SvWhiD 3 μM with σ^HrdB4 0.75-21 μM, I151A FNR (3 μM) as internal standard, 250 mM ammonium acetate, pH 7.2; fractional saturation against free σ^HrdB4 fitted with a simple binding isotherm. The following applies: both partners purified.

B1: Domain 4 of the S. venezuelae principal sigma factor σ^HrdB (σ^HrdB4), N-terminally His6-tagged (domain or fragment)
chain: PADAVSFTLLQEQLHSVLDTLSEREAGVVSMRFGLTDGQPKTLDEIGKVYGVTRERIRQIESKTMSKLRHPSRSQVLRDYLD
For the molecule B1, binding was put at a Kd of 740 nM.

For the origin of these results see paper PMC7363131, “Interaction of the Streptomyces Wbl protein WhiD with the principal sigma factor σ^HrdB depends on the WhiD [4Fe-4S] cluster” (The Journal of Biological Chemistry, 2020).
